Measurements reported in the Human Domainome abundance scans (Beltran et al. 2025).

B1: POU domain, class 3, transcription factor 2, residues 262 to 338; numbered along this chain, P20265 (parent)
chain: EDTPTSDDLEQFAKQFKQRRIKLGFTQADVGLALGTLYGNVFSQTTICRFEALQLSFKNMCKLKPLLNKWLEEADSS

Variants of: B1
Test: abundance fitness (aPCA) (normalised: wild type 0, dead -1); higher = more abundant; growth selection in yeast, the domain comes from the species named
Details: Homo sapiens

Abundance fitness, by site and new letter:
L32: K 0.493, R -0.033, N 0.091, S -0.197, W -0.015, F -0.25, V -0.448
V30: R -0.979, Y -0.652, L -0.306, F -0.552, I -0.235, A -0.23, P -0.569, S -1, Q -1.11, W -0.793, D -0.794, G -0.776, H -0.529, T -0.501, C -0.176, M -0.655, N -0.381
Y38: E -0.199, G -0.074, D -0.036, F -0.036, A -0.069, C -0.065
G31: C -0.009, K -0.383, A 0.047, R -0.383, W -0.207, M -0.291, F -0.39, I -0.399, L -0.59, P -0.648, D -0.385, N -0.44, V -0.113, T -0.096, S 0.025, Q -0.188, E -0.224, Y -0.213, H -0.287
G35: Y -0.155, T 0.052, S 0.037, R 0.016, E -0.076, Q 0.025, M -0.174, F -0.183, P -0.612, N 0.008, V -0.345, C -0.113, H -0.06, I -0.367, A -0.016, D -0.415, L -0.453, W -0.239
D29: A -0.205, L -0.63, G -0.239, N -0.228, Q -0.04, W -0.588, V -0.607, M -0.299, Y -0.251, E -0.04, K -0.26, C -0.542, T -0.428, F -0.649, H -0.249, S -0.248, R -0.285
L37: V -0.042, Y -0.157, S -0.093, H -0.194, W -0.201, G -0.328, I 0.063, D -0.118, N -0.121, P -0.293, T 0.048, E -0.012, A -0.023, F -0.053, C -0.031, Q -0.027
L34: D -0.76, F -0.732, R -0.773, C -0.224, G -0.854, S -0.955, A -0.646, V -0.329, N -0.796, Y -0.895, M -0.035, E -1.01, T -0.742, K -0.441, Q -0.948, I -0.132, H -1.2, W -0.973
T36: I -0.184, S 0.042, G -0.079, W -0.33, H 0.015, N 0.052, E 0.056, P -0.137, L -0.194, C -0.156, R 0.012, M -0.11, F -0.342, Q -0.038, Y 0.026, A -0.021
A28: Y -0.117, K 0.067, D -0.182, H -0.116, M -0.208, E 0.035, L -0.196, N -0.019, R -0.058, F -0.452, C -0.165, S -0.086, Q -0.094, W -0.301, P -0.811, T -0.198, V -0.204
A33: C -0.19, K -0.264, Q 0.015, I -0.138, L -0.304, T -0.113, M -0.077, E -0.172, D -0.284, H -0.002, F -0.329, R -0.102, S -0.091, N -0.477, W -0.021, Y -0.314
